Assay results reported in patent US20140242083A1 (Hoffmann-La Roche, published 2014).

T1: Human MCSP D3 (human, UniProt Q6UVK1 1582-2224)
T1 construct: Soluble analyte in SPR; The selection antigen was hu-MCSP(D3 domain)-avi-his; also called hu-MCSP(D3 domain)-avi-his
T1 sequence: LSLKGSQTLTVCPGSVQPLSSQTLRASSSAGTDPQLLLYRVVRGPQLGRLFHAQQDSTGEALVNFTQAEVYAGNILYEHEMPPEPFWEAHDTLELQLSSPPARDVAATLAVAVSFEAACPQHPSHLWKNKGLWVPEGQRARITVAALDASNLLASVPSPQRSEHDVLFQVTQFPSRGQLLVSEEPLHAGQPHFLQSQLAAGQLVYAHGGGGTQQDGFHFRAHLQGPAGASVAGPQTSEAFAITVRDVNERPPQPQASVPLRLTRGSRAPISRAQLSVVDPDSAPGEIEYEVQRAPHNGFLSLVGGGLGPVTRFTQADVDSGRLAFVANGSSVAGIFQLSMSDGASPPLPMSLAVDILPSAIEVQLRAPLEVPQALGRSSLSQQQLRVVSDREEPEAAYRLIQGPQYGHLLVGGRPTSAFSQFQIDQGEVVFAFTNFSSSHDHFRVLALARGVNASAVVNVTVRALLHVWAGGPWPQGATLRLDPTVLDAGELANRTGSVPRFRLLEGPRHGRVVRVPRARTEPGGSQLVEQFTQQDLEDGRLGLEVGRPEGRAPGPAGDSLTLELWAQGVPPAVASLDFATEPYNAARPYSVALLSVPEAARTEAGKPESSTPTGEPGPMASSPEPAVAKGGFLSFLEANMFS

T2: Cynomolgus MCSP D3 (cynomolgus, UniProt Q6UVK1 1582-2224 (human entry), limits assumed)
T2 construct: Soluble analyte in SPR
T2 chain: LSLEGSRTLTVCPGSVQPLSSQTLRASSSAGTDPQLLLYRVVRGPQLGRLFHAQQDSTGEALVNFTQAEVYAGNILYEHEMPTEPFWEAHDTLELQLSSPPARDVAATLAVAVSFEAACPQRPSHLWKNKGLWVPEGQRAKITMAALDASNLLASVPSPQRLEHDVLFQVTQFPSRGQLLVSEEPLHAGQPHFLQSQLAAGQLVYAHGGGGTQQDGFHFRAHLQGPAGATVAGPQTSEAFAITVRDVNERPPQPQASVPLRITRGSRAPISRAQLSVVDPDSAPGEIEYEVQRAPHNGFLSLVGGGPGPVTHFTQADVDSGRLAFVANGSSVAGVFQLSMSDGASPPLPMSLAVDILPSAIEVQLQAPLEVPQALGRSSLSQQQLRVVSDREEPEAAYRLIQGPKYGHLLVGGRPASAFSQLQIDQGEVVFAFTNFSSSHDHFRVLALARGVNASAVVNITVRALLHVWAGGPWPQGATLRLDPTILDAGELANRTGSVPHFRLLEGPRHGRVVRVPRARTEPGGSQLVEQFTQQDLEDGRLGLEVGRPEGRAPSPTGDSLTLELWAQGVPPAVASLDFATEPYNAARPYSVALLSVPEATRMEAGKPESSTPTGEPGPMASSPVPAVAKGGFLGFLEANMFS


Assays:
[1] = biological target: T1, Human MCSP D3; test: SPR Biacore T200, 25 C, IgG captured on anti-human Fab, MCSP D3 as analyte, 1:1 Langmuir fit
Protocol: (§1) IgGs were captured on a CM5 sensorchip surface with immobilized anti human Fab. Capture IgG was coupled to the sensorchip surface by direct immobilization of around 10,000 resonance units (RU) at pH 5.0 using the standard amine coupling kit (Biacore, Freiburg/Germany). IgGs are captured for 60 s at 30 nM with 10 μl/min. Human and cynomolgus MCSP D3 were passed at a concentration of 0.49-1000 nM with a flowrate of 30 μl/min through the flow cells over 180 s. The dissociation is monitored for 210 s. Bulk refractive index differences were corrected for by subtracting the response obtained on reference flow cell. Here, the antigens were flown over a surface with immobilized anti-human Fab antibody but on which HBS-EP has been injected rather than anti MCSP IgGs.

[2] = biological target: T2, Cynomolgus MCSP D3; test: as above
Protocol: as §1

Binder	Kd [1] [nM]	Kd [2] [nM]
M4-3 ML2 (parental) (antibody, human IgG1, kappa, V domains shown, Non-matured parental humanized IgG; also called humanized antibody M4-3 ML2) VH: QVQLQESGPGLVKPSQTLSLTCTVSGGSITSGYYWNWIRQHPGKGLEWIGYITYDGSNNYNPSLKSRVTISRDTSKNQFSLKLSSVTAADTAVYYCADFDYWGQGTLVTVSS VL: DIQMTQSPSSLSASVGDRVTITCRASQGIRNYLNWYQQKPGKAPKLLIYYTSSLHSGVPSRFSGSGSGTDFTLTISSLQPEDFATYYCQQYSKLPWTFGQGTKVEIKR	24.2	82.5
M4-3 (C1) ML2 (antibody, human IgG1, V domains shown) VH: QVQLQESGPGLVKPSQTLSLTCTVSGGSITSGYYWNWIRQHPGKGLEWIGYITFDGSNNYNPSLKSRVTISRDTSKNQFSLKLSSVTAADTAVYYCADFDYWGQGTLVTVSS VL: DIQMTQSPSSLSASVGDRVTITCRASQGIRNYLNWYQQKPGKAPKLLIYYTSSLHSGVPSRFSGSGSGTDFTLTISSLQPEDFATYYCQQYSKLPWTFGQGTKVEIK	7.2	9.8
M4-3 (A7) ML2 (antibody, human IgG1, V domains shown) VH: QVQLQESGPGLVKPSQTLSLTCTVSGGSITDGYYWNWIRQHPGKGLEWIGYITFDGRNNYNPSLKSRVTISRDTSKNQFSLKLSSVTAADTAVYYCADFDYWGQGTLVTVSS VL: DIQMTQSPSSLSASVGDRVTITCRASQGIRNYLNWYQQKPGKAPKLLIYYTSSLHSGVPSRFSGSGSGTDFTLTISSLQPEDFATYYCQQYSKLPWTFGQGTKVEIK	7.1	16.3
M4-3 (A7) ML2 (G3) (antibody, human IgG1, V domains shown) VH: QVQLQESGPGLVKPSQTLSLTCTVSGGSITDGYYWNWIRQHPGKGLEWIGYITFDGRNNYNPSLKSRVTISRDTSKNQFSLKLSSVTAADTAVYYCADFDYWGQGTLVTVSS VL: DIQMTQSPSSLSASVGDRVTITCRASQGIRNYLNWYQQKPGKAPKLLIYYTSSLHSGVPSRFSGSGSGTDYTLTISSLQPEDFATYYCQQYSALPWTFGQGTKVEIK	0.009	1.5
M4-3 (B7) ML2 (antibody, human IgG1, V domains shown) VH: QVQLQESGPGLVKPSQTLSLTCTVSGGSITSGYYWNWIRQHPGKGLEWIGYITFDGINNYNPSLKSRVTISRDTSKNQFSLKLSSVTAADTAVYYCADFDYWGQGTLVTVSS VL: DIQMTQSPSSLSASVGDRVTITCRASQGIRNYLNWYQQKPGKAPKLLIYYTSSLHSGVPSRFSGSGSGTDFTLTISSLQPEDFATYYCQQYSKLPWTFGQGTKVEIK	12.6	9.9
M4-3 (B8) ML2 (antibody, human IgG1, V domains shown) VH: QVQLQESGPGLVKPSQTLSLTCTVSGGSITSGYYWNWIRQHPGKGLEWIGYITFDGRNNYNPSLKSRVTISRDTSKNQFSLKLSSVTAADTAVYYCADFDYWGQGTLVTVSS VL: DIQMTQSPSSLSASVGDRVTITCRASQGIRNYLNWYQQKPGKAPKLLIYYTSSLHSGVPSRFSGSGSGTDFTLTISSLQPEDFATYYCQQYSKLPWTFGQGTKVEIK	19.2	28.8
M4-3 (A7) ML2 (E10) (antibody, human IgG1, V domains shown) VH: QVQLQESGPGLVKPSQTLSLTCTVSGGSITDGYYWNWIRQHPGKGLEWIGYITFDGRNNYNPSLKSRVTISRDTSKNQFSLKLSSVTAADTAVYYCADFDYWGQGTLVTVSS VL: DIQMTQSPSSLSASVGDRVTITCRASYGIRGYLNWYQQKPGKAPKLLIYYTSSLHSGVPSRFSGSGSGTDFTLTISSLQPEDFATYHCQQYSKLPWTFGQGTKVEIK	3.1	8.5
M4-3 (A7) ML2 (C5) (antibody, human IgG1, V domains shown) VH: QVQLQESGPGLVKPSQTLSLTCTVSGGSITDGYYWNWIRQHPGKGLEWIGYITFDGRNNYNPSLKSRVTISRDTSKNQFSLKLSSVTAADTAVYYCADFDYWGQGTLVTVSS VL: DIQMTQSPSSLSASVGDRVTITCRASRGIREYLNWYQQKPGKAPKLLIYYTGSLHSGVPSRFSGSGSGTDFTLTISSLQPEDFATYYCQQYSELPWTFGQGTKVEIK	0.002	1.1

More lines, now with the values ahead:

Kd [1] [nM]	Kd [2] [nM]	Binder
0.003	0.12	M4-3 (C1) ML2 (C5) (antibody, human IgG1, V domains shown) VH: QVQLQESGPGLVKPSQTLSLTCTVSGGSITSGYYWNWIRQHPGKGLEWIGYITFDGSNNYNPSLKSRVTISRDTSKNQFSLKLSSVTAADTAVYYCADFDYWGQGTLVTVSS VL: DIQMTQSPSSLSASVGDRVTITCRASRGIREYLNWYQQKPGKAPKLLIYYTGSLHSGVPSRFSGSGSGTDFTLTISSLQPEDFATYYCQQYSELPWTFGQGTKVEIK
21.4	62.8	M4-3 ML2 (E10) (antibody, human IgG1, V domains shown) VH: QVQLQESGPGLVKPSQTLSLTCTVSGGSITSGYYWNWIRQHPGKGLEWIGYITYDGSNNYNPSLKSRVTISRDTSKNQFSLKLSSVTAADTAVYYCADFDYWGQGTLVTVSS VL: DIQMTQSPSSLSASVGDRVTITCRASYGIRGYLNWYQQKPGKAPKLLIYYTSSLHSGVPSRFSGSGSGTDFTLTISSLQPEDFATYHCQQYSKLPWTFGQGTKVEIK
0.8	5.7	M4-3 ML2 (C5) (antibody, human IgG1, V domains shown) VH: QVQLQESGPGLVKPSQTLSLTCTVSGGSITSGYYWNWIRQHPGKGLEWIGYITYDGSNNYNPSLKSRVTISRDTSKNQFSLKLSSVTAADTAVYYCADFDYWGQGTLVTVSS VL: DIQMTQSPSSLSASVGDRVTITCRASRGIREYLNWYQQKPGKAPKLLIYYTGSLHSGVPSRFSGSGSGTDFTLTISSLQPEDFATYYCQQYSELPWTFGQGTKVEIK
4.2	12.8	M4-3 ML2 (C5/G3) (antibody, human IgG1, V domains shown) VH: QVQLQESGPGLVKPSQTLSLTCTVSGGSITSGYYWNWIRQHPGKGLEWIGYITYDGSNNYNPSLKSRVTISRDTSKNQFSLKLSSVTAADTAVYYCADFDYWGQGTLVTVSS VL: DIQMTQSPSSLSASVGDRVTITCRASRGIREYLNWYQQKPGKAPKLLIYYTGSLHSGVPSRFSGSGSGTDFTLTISSLQPEDFATYYCQQYSALPWTFGQGTKVEIK
1.6	1.3	M4-3 (C1) ML2 (G3) (antibody, human IgG1, kappa, V domains shown) VH: QVQLQESGPGLVKPSQTLSLTCTVSGGSITSGYYWNWIRQHPGKGLEWIGYITFDGSNNYNPSLKSRVTISRDTSKNQFSLKLSSVTAADTAVYYCADFDYWGQGTLVTVSS VL: DIQMTQSPSSLSASVGDRVTITCRASQGIRNYLNWYQQKPGKAPKLLIYYTSSLHSGVPSRFSGSGSGTDYTLTISSLQPEDFATYYCQQYSALPWTFGQGTKVEIKR
3.9	4.5	M4-3 (C1) ML2 (E10) (antibody, human IgG1, V domains shown) VH: QVQLQESGPGLVKPSQTLSLTCTVSGGSITSGYYWNWIRQHPGKGLEWIGYITFDGSNNYNPSLKSRVTISRDTSKNQFSLKLSSVTAADTAVYYCADFDYWGQGTLVTVSS VL: DIQMTQSPSSLSASVGDRVTITCRASYGIRGYLNWYQQKPGKAPKLLIYYTSSLHSGVPSRFSGSGSGTDFTLTISSLQPEDFATYHCQQYSKLPWTFGQGTKVEIK
15.1	24.6	M4-3 (D6) ML2 (antibody, human IgG1, V domains shown) VH: QVQLQESGPGLVKPSQTLSLTCTVSGGSITSGYYWNWIRQHPGKGLEWIGYITFDGKNNYNPSLKSRVTISRDTSKNQFSLKLSSVTAADTAVYYCADFDYWGQGTLVTVSS VL: DIQMTQSPSSLSASVGDRVTITCRASQGIRNYLNWYQQKPGKAPKLLIYYTSSLHSGVPSRFSGSGSGTDFTLTISSLQPEDFATYYCQQYSKLPWTFGQGTKVEIK
5.5	12.2	M4-3 ML2 (E10/G3) (antibody, human IgG1, V domains shown) VH: QVQLQESGPGLVKPSQTLSLTCTVSGGSITSGYYWNWIRQHPGKGLEWIGYITYDGSNNYNPSLKSRVTISRDTSKNQFSLKLSSVTAADTAVYYCADFDYWGQGTLVTVSS VL: DIQMTQSPSSLSASVGDRVTITCRASYGIRGYLNWYQQKPGKAPKLLIYYTSSLHSGVPSRFSGSGSGTDFTLTISSLQPEDFATYHCQQYSALPWTFGQGTKVEIK
